Assay [1] concerns the target AAC1 (ADP/ATP CARRIER 1) (Arabidopsis thaliana). Kind of assay: TAP-MS, C-terminal GS tag.
The target in assay [2] is expressed protein, similar to At4g22320 (AT5G55210) (Arabidopsis thaliana). Nature of the assay: TAP-MS, C-terminal GS tag.
The target in assay [3] is OASA1 (O-… (THIOL) LYASE (OAS-TL) ISOFORM A1) (Arabidopsis thaliana). Kind of assay: TAP-MS, C-terminal GS tag.
Assay [4] concerns the target unknown, similar to At5g55210 (AT4G22320) (Arabidopsis thaliana). Nature of the assay: TAP-MS, C-terminal GS tag.
Assay [5] deals with HIS4 (Arabidopsis thaliana). Nature of the assay: TAP-MS, C-terminal GS tag.
In assay [6] the target is T1, GLX1 (GLYOXALASE I HOMOLOG) (Arabidopsis thaliana).
T1 sequence (O65398 2-283, looked up): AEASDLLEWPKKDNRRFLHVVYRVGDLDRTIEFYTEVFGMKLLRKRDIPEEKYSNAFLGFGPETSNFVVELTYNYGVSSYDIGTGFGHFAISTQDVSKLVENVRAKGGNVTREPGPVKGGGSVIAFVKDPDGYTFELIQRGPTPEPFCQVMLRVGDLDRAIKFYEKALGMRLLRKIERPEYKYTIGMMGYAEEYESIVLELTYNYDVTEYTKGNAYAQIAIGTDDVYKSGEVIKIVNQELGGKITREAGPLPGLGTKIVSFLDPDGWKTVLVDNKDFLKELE
Kind of assay: TAP-MS, C-terminal GS tag.

The target in assay [7] is DNA-binding bromodomain-containing protein (AT1G20670) (Arabidopsis thaliana). Nature of the assay: TAP-MS, C-terminal GS tag.
Assay [8] addresses Swp73A (Arabidopsis thaliana). Nature of the assay: TAP-MS, C-terminal GS tag.
Assay [9] addresses expressed protein, similar to At3g03460 (AT5G17510) (Arabidopsis thaliana). Kind of assay: TAP-MS, C-terminal GS tag.
For assay [10], the target named is T2, actin-related protein 4 (ARP4) (Arabidopsis thaliana).
T2 sequence (Q84M92 1-441, looked up): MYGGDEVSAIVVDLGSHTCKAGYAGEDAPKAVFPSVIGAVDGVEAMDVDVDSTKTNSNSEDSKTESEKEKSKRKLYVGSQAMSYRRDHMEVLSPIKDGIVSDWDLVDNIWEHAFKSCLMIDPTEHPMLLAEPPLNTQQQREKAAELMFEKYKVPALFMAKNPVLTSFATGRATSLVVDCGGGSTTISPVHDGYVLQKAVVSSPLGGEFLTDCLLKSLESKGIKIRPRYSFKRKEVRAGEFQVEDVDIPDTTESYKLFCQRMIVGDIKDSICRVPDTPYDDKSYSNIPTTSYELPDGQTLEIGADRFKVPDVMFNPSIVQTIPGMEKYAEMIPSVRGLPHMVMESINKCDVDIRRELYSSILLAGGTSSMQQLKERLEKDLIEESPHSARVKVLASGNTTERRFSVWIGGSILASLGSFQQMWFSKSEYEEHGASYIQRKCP
Nature of the assay: TAP-MS, C-terminal GS tag.

In assay [11] the target is SWIB complex BAF60b domain-containing protein (Swp73B) (Arabidopsis thaliana). Kind of assay: TAP-MS, C-terminal GS tag.
The target in assay [12] is SNF2 protein (BRM) (Arabidopsis thaliana). Kind of assay: TAP-MS, C-terminal GS tag.
The target in assay [13] is T3, actin-related protein 7 (ARP7) (Arabidopsis thaliana).
T3 sequence (Q8L4Y5 1-363, looked up): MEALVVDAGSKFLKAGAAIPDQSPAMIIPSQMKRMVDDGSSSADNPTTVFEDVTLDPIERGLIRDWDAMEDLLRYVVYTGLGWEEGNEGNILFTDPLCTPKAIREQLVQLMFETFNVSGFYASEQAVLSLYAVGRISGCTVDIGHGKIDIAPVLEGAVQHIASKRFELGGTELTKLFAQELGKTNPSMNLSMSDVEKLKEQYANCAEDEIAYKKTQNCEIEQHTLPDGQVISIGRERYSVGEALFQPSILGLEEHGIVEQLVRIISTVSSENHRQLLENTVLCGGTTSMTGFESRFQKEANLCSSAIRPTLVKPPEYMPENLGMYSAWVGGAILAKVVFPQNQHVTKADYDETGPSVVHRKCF
Kind of assay: TAP-MS, C-terminal GS tag.

Assay [14] concerns the target DNA-binding bromodomain-containing protein, similar to At1g20670 (AT1G76380) (Arabidopsis thaliana). Nature of the assay: TAP-MS, C-terminal GS tag.
The target in assay [15] is DNA-binding bromodomain-containing protein (AT1G20670) (Arabidopsis thaliana). Kind of assay: TAP-MS, N-terminal GS tag.
Assay [16] concerns the target expressed protein, similar to At4g22320 (AT5G55210) (Arabidopsis thaliana). Nature of the assay: TAP-MS, N-terminal GS tag.
In assay [17] the target is Swp73A (Arabidopsis thaliana). Nature of the assay: TAP-MS, N-terminal GS tag.
In assay [18] the target is expressed protein, similar to At3g03460 (AT5G17510) (Arabidopsis thaliana). Nature of the assay: TAP-MS, N-terminal GS tag.
Assay [19] concerns the target T2, actin-related protein 4 (ARP4) (Arabidopsis thaliana). Kind of assay: TAP-MS, N-terminal GS tag.
Assay [20] deals with SWIB complex BAF60b domain-containing protein (Swp73B) (Arabidopsis thaliana). Kind of assay: TAP-MS, N-terminal GS tag.
The target of assay [21] is unknown protein, similar to At5g17510 (AT3G03460) (Arabidopsis thaliana). Kind of assay: TAP-MS, N-terminal GS tag.
Assay [22] has as its target SNF2 protein (BRM) (Arabidopsis thaliana). Kind of assay: TAP-MS, N-terminal GS tag.
Assay [23] addresses T3, actin-related protein 7 (ARP7) (Arabidopsis thaliana). Kind of assay: TAP-MS, N-terminal GS tag.
In assay [24] the target is CPK23 (calcium-dependent protein kinase 23) (Arabidopsis thaliana). Nature of the assay: TAP-MS, N-terminal GS tag.
The target of assay [25] is DNA-binding bromodomain-containing protein, similar to At1g20670 (AT1G76380) (Arabidopsis thaliana). Kind of assay: TAP-MS, N-terminal GS tag.
The target in assay [26] is chromatin remodeling protein (SYD) (Arabidopsis thaliana). Kind of assay: TAP-MS, N-terminal GS tag.
For assay [27], the target named is T4, GAD (Glutamate decarboxylase); calmodulin binding (Arabidopsis thaliana).
T4 sequence (Q42521 1-502, looked up): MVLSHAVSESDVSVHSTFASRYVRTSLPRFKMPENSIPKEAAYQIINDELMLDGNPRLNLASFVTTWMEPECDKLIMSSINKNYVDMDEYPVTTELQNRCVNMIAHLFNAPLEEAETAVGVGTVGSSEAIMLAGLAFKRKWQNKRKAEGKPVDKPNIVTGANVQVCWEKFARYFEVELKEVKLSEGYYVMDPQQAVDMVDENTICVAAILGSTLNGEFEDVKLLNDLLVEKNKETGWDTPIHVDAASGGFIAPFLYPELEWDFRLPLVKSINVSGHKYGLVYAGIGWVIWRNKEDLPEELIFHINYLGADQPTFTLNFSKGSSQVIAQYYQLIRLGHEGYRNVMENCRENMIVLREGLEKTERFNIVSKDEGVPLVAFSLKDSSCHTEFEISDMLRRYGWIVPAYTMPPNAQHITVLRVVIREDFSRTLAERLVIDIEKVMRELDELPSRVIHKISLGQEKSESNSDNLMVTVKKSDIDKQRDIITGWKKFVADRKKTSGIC
Kind of assay: TAP-MS, N-terminal GS tag.

Assay [28] has as its target importin alpha-2 (IMPA2) (Arabidopsis thaliana). Nature of the assay: TAP-MS, N-terminal GS tag.
Assay [29] concerns the target G2484-1, agenet domain-containing protein (Arabidopsis thaliana). Nature of the assay: TAP-MS, N-terminal GS tag.
Assay [30] concerns the target acyl-(acyl-carrier-protein) desaturase (AT1G43800) (Arabidopsis thaliana). Kind of assay: TAP-MS, N-terminal GS tag.
In assay [31] the target is T5, ATASE (Gln Phosphoribosyl Pyrophospate Amidotransferase 1) (Arabidopsis thaliana).
T5 sequence (Q9SI61 59-566, looked up): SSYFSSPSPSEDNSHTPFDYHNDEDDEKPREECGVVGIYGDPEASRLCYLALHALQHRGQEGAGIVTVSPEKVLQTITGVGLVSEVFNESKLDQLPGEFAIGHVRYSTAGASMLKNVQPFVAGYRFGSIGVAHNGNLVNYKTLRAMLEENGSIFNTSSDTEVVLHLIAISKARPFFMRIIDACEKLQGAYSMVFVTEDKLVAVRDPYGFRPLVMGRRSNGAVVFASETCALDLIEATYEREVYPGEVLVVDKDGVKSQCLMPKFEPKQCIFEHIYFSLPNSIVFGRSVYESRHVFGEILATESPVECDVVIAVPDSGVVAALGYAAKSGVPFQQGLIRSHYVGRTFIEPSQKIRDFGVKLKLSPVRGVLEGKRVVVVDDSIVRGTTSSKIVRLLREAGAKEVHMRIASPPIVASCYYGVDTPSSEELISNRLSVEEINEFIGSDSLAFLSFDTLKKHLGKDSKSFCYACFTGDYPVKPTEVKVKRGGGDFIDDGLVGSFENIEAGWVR
Nature of the assay: TAP-MS, N-terminal GS tag.

In assay [32] the target is PTAC17 (PLASTID …ONALLY ACTIVE17) (Arabidopsis thaliana). Nature of the assay: TAP-MS, N-terminal GS tag.
Assay [33] concerns the target expressed protein, similar to DAG protein (AT3G15000) (Arabidopsis thaliana). Kind of assay: TAP-MS, N-terminal GS tag.

The results in this text go back to patent US20120324602A1.

B1: ARP7-GS (protein, UniProt Q8L4Y5 1-363, looked up)
Actin-related protein 7: T3 sequence (Q8L4Y5 1-363, looked up)
modifications: C-terminal GS tag
Take B1: the C-GS (times co-purified) came out at 1 in assay [1]; 2 in assay [2]; 1 in assay [3]; 2 in [4]; 1 in assay [5].

B2: SWI3C-GS (protein, UniProt Q9XI07 1-807, looked up)
SWI/SNF complex subunit SWI3C: MPASEDRRGKWKRKKRGGLSAARKPKQEEEDMEEEDEENNNNNNEEMDDVENADELQQNGGATPDPGLGIGEVVEDSGSRISDFPAVVKRVVIRPHASVMAVVAAERAGLIGETRGQGSLPALENISFGQLQALSTVPADSLDLERSDGSSSAYVISPPPIMDGEGVVKRFGDLVHVLPMHSDWFAPNTVDRLERQVVPQFFSGKSPNHTPESYMEFRNAIVSKYVENPEKTLTISDCQGLVDGVDIEDFARVFRFLDHWGIINYCATAQSHPGPLRDVSDVREDTNGEVNVPSAALTSIDSLIKFDKPNCRHKGGEVYSSLPSLDGDSPDLDIRIREHLCDSHCNHCSRPLPTVYFQSQKKGDILLCCDCFHHGRFVVGHSCLDFVRVDPMKFYGDQDGDNWTDQETLLLLEAVELYNENWVQIADHVGSKSKAQCILHFLRLPVEDGLLDNVEVSGVTNTENPTNGYDHKGTDSNGDLPGYSEQGSDTEIKLPFVKSPNPVMALVAFLASAVGPRVAASCAHESLSVLSEDDRMKSEGMQGKEASLLDGENQQQDGAHKTSSQNGAEAQTPLPQDKVMAAFRAGLSAAATKAKLFADHEEREIQRLSANIVNHQLKRMELKLKQFAEIETLLMKECEQVEKTRQRFSAERARMLSARFGSPGGISPQTNNLQGMSLSTGGNNINSLMHQQHQQQQASATSQPSIIPGFSNNPQVQAQMHFMARQQQQQQQQQQQQQQAFSFGPRLPLNAIQTNAGSTASPNVMFGNNQLNNPAAAGAASINQPSFSHPMVRSSTGSGSGSGLGLN
modifications: C-terminal GS tag
Consider B2, for which the C-GS (times co-purified) in assay [6] amounted to 1; in [7] it was 2; in assay [2] it was 2; in assay [8], 2; in [9] it was 2; in assay [10], 2. Moreover, the C-GS (times co-purified) in assay [3] turned out to be 1; in [11], 2; in assay [12], 2; in assay [4] it was 1; in assay [13], 2; in assay [14], 2.

B3: GS-SWI3C (protein, UniProt Q9XI07 1-807, looked up)
SWI/SNF complex subunit SWI3C: B2 SWI/SNF complex subunit SWI3C
modifications: N-terminal GS tag
Take B3: the N-GS (times co-purified) in assay [15] turned out to be 3; in assay [16], 2; in assay [17] it was 3; in assay [18] it was 3; in assay [19], 3; in [20], 3. Moreover, the N-GS (times co-purified) turned out to be 1 in assay [21]; 3 in assay [22]; 3 in [23]; 1 in assay [24]; 2 in [25].

B4: GS-AN3 (protein, UniProt Q8L8A5 1-210, looked up)
GRF1-interacting factor 1: MQQHLMQMQPMMAGYYPSNVTSDHIQQYLDENKSLILKIVESQNSGKLSECAENQARLQRNLMYLAAIADSQPQPPSVHSQYGSAGGGMIQGEGGSHYLQQQQATQQQQMTQQSLMAARSSMLYAQQQQQQQPYATLQHQQLHHSQLGMSSSSGGGGSSGLHILQGEAGGFHDFGRGKPEMGSGGGGEGRGGSSGDGGETLYLKSSDDGN
modifications: N-terminal GS tag
Take B4: the N-GS (times co-purified) came out at 4 in assay [26]; 1 in assay [27]; 1 in assay [28]; 2 in assay [22]; 2 in [29]; 1 in assay [30]. Moreover, the N-GS (times co-purified) in [31] was determined as 2; in assay [23], 3; in assay [32], 1; in [33] it was 3.
